Here are results for one molecule from US20250186597A1, “TARGETED IMMUNE ACTIVATION WITH IL-18 IMMUNOCYTOKINES” (BRIGHT PEAK THERAPEUTICS AG, priority 2023, published 2025).

Common to all, as to format: cell-based, human
Assay [1] has as its system PD-1 positive (transduced) KG-1 cells. In words: IFN gamma secretion assay in PD-1 transduced KG-1 cells (Example 11). As for the experimental part: The KG-1 cell line was used to generate a PD-1 expressing cell line and furthermore, to measure IFNγ release upon incubation with IL-18 variants and corresponding IL-18 immunocytokines.
PD-1 expressing cell line generation: Briefly, KG-1 cells were transduced using lentiviral particles carrying the human PD-1 gene (PDCD1 NM_005018; Origene, CAT #: RC210364L3V) at a MOI (Multiplicity of Infection) of 30. Spinfection was performed at 1260 g during 90 min at 37° C. in the presence of 5 μg/ml of Polybrene and 10 mM of HEPES in complete culture media (RPMI, 10% FBS, 1% L-Glutamine). […]
IFNγ release was assessed in PD-1 positive (transduced) KG-1 cells, as well as in the parental PD-1 negative cells. […] The lowest concentration assessed was […]. After incubation, IFNγ release was measured using the LEGENDplex custom human mix and match KIT (Biolegend LEGENDplex™ Human IFN-γ Capture Bead B5, 13X #740942, LEGENDplex™ HU Essential Immune Response Panel Detection Abs, #740931, LEGENDplex™ Buffer Set A #740368). […] Fluorescence measurements were done with a Quanteon Flow Cytometer from Acea Biosciences. For analysis, MFI values (median fluorescence intensity) were exported and plotted against concentrations used. The EC50 values (half maximal effective concentration) were calculated based on a variable slope and four parameter analysis using GraphPad PRISM software version 9.

For assay [2], the system named is NK92 cells. In words: Cellular IL-18 Binding Protein resistance assay in NK92 cells (Example 13). Conditions: IL-18BP-mediated inhibition of IFNγ secretion, IL-18 analyte 1 nM. As for the experimental part:
The NK cell line NK-92 derived from a patient with lymphoma (ATCC, Cat #CR^L-2407) was cultured in αMEM medium supplemented with 20% FCS-Glutamax, 25 μM B-mercaptoethanol, and 100 IU/ml of recombinant Human Interleukin-2 (IL-2). On the day of experiment, cells were harvested and washed with αMEM medium without IL-2. After counting, cells were seeded at 100 000 cells/well in a 384 well titer plate and incubated at 37° C./5% CO2. Sixteen 2-fold serial dilutions of Fc fused human IL-18 binding protein isoform a (IL-18BPa; R&D systems, Cat #119-BP) were prepared in αMEM medium—1 ng/ml IL-12 containing 2 nM of each IL-18 variants and were added to the NK-92 cells. Final IL-18 analytes concentration was 1 nM and final IL-18BPa concentrations ranged from to 566 nM down to 17 pM.
After 16-20 h incubation at 37° C./5% CO2, 5 μl of supernatant were carefully transferred to a 384 microwells OPTIplate (Perkin Elmer; Cat #6007270) and Interferon-gamma (IFNγ) levels measured using the Human IFNγ AlphaLISA Assay Kit (Perkin Elmer, Cat #AL217C). […] AlphaLisa signal was then measured on an Enspire plate reader (Perkin Elmer) using 680 and 615 nm as excitation and emission wavelengths respectively. Half maximal inhibitory concentration (IC50) was calculated based on a variable slope, four parameter analysis using GraphPad PRISM software.

Assay [3] has as its system PD-1positive transduced NK-92 cells. In words: IFN gamma secretion assay in PD-1 positive transduced NK-92 cells (Example 17). As for the experimental part: To show selectivity of the anti-PD1-IL18 immunocytokine (IC) for PD-1 positive cells, the NK-92 cell line was used to generate a PD-1 expressing cell line and furthermore, to measure IFN[…] release upon incubation with IL-18 variants and ICs.
On the day of experiment, parental PD-1negative and PD-1positive transduced cells were harvested and washed with PBS 1× and resuspended in medium (w/o IL-2) containing 1 ng/ml of recombinant human Interleukin-12 (SinoBiologicals, Cat #CT011-H08H). After counting, cells were seeded at 100 000 cells/well in a 384 well culture plate and incubated at 37° C./5% CO2. When indicated, cells were preincubated with anti-PD-1 antibody LZM-009 at 17 uM during 30 min at 37° C. […] The lowest concentration assessed was 0.8 fM.
After 16-20 h incubation at 37° C./5% CO2, 5 μl of supernatant were carefully transferred to a 384 microwell OptiPlate (Perkin Elmer; Cat #6007270) and Interferon-gamma (IFNγ) levels were measured using the Human IFNγ AlphaLISA Assay Kit (Perkin Elmer, Cat #AL217C). […] AlphaLISA signal was then measured on an Enspire plate reader (Perkin Elmer) using 680 and 615 nm as excitation and emission wavelengths respectively. Half maximal effective concentration (EC50) was calculated based on a variable slope, four parameter analysis using GraphPad PRISM software.

B1: SEQ ID NO: 30: IL-18 polypeptide: E6K, V11I, C38A, K53A, T63A, C76A, C127A (protein)
chain: YFGKLKSKLSIIRNLNDQVLFIDQGNRPLFEDMTDSDARDNAPRTIFIISMYADSQPRGMAVAISVKCEKISTLSAENKIISFKEMNPPDNIKDTKSDIIFFQRSVPGHDNKMQFESSSYEGYFLAAEKERDLFKLILKKEDELGDRSIMFTVQNED
In the case of B1, the EC50 in assay [1] (IFNγ secretion, PD-1 transduced KG-1) amounted to 8 pM; in assay [3] (IFNγ secretion), 2.8 pM. Also, the “PD-1^neg/PD-1^pos EC50 ratio” value came to 1.336 in assay [1] (KG-1 cells) and 0.9 in assay [3] (NK-92 cells). Besides, in assay [2], the 50% inhibitory concentration (IC50) worked out at 488000 pM.
